In the supplement of paper PMC9112550, “Optimization of the antimicrobial peptide Bac7 by deep mutational scanning” (BMC Biology, 2022):

Tested on: Escherichia coli TOP10
Assay: shrunken log2 fold change of peptide-encoding DNA abundance (4.5 h post-induction vs induction); higher = less antimicrobial activity (less host growth inhibition)
Details: time post-induction: 4.5 h; library: site-saturation at positions 5, 18, 19, 20
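Also: peptides expressed intracellularly from a pBAD plasmid library in pooled LB shake-flask culture, induced with 0.3% L-arabinose, DNA abundance read by NGS, three biological replicates, DESeq2 with apeglm shrinkage.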

| Sequence | shrunken log2 fold change |
| --- | --- |
| RRIRPRPPRLPRPRPRPPHFPRP | 0.646 |
| RRIRPRPPRLPRPRPRPPHHPRP | 0.188 |
| RRIRPRPPRLPRPRPRPPHLPRP | 0.024 |
| RRIRPRPPRLPRPRPRPPHSPRP | 1.31 |
| RRIRPRPPRLPRPRPRPPIDPRP | 0.216 |
| RRIRPRPPRLPRPRPRPPIHPRP | -0.039 |
| RRIRPRPPRLPRPRPRPPIVPRP | 0.161 |
| RRIRPRPPRLPRPRPRPPKEPRP | 0.506 |
| RRIRPRPPRLPRPRPRPPKQPRP | 0.066 |
| RRIRPRPPRLPRPRPRPPLCPRP | 0.281 |
| RRIRPRPPRLPRPRPRPPLFPRP | 0.36 |
| RRIRPRPPRLPRPRPRPPLQPRP | 0.327 |
| RRIRPRPPRLPRPRPRPPMHPRP | 0.359 |
| RRIRPRPPRLPRPRPRPPMKPRP | 0.0802 |
| RRIRPRPPRLPRPRPRPPNDPRP | 0.111 |
| RRIRPRPPRLPRPRPRPPNEPRP | -0.0989 |
| RRIRPRPPRLPRPRPRPPPKPRP | 0.902 |
| RRIRPRPPRLPRPRPRPPPPPRP | 0.85 |
| RRIRPRPPRLPRPRPRPPQHPRP | 0.485 |
| RRIRPRPPRLPRPRPRPPQIPRP | 0.138 |
| RRIRPRPPRLPRPRPRPPQNPRP | 0.361 |
| RRIRPRPPRLPRPRPRPPSAPRP | 1.05 |
| RRIRPRPPRLPRPRPRPPTFPRP | -0.142 |
| RRIRPRPPRLPRPRPRPPTRPRP | 0.683 |
| RRIRPRPPRLPRPRPRPPVGPRP | 0.557 |

| Sequence | shrunken log2 fold change |
| --- | --- |
| RRIRPRPPRLPRPRPRPPVHPRP | -0.0329 |
| RRIRPRPPRLPRPRPRPPYDPRP | -0.173 |
| RRIRPRPPRLPRPRPRPQCDPRP | -0.254 |
| RRIRPRPPRLPRPRPRPQDLPRP | -0.13 |
| RRIRPRPPRLPRPRPRPQEFPRP | 0.0774 |
| RRIRPRPPRLPRPRPRPQEYPRP | -0.151 |
| RRIRPRPPRLPRPRPRPQFWPRP | 0.249 |
| RRIRPRPPRLPRPRPRPQHCPRP | -0.0861 |
| RRIRPRPPRLPRPRPRPQHWPRP | 0.265 |
| RRIRPRPPRLPRPRPRPQIEPRP | -0.0699 |
| RRIRPRPPRLPRPRPRPQIMPRP | -0.265 |
| RRIRPRPPRLPRPRPRPQINPRP | -0.122 |
| RRIRPRPPRLPRPRPRPQITPRP | -0.314 |
| RRIRPRPPRLPRPRPRPQIWPRP | 0.0101 |
| RRIRPRPPRLPRPRPRPQKIPRP | -0.267 |
| RRIRPRPPRLPRPRPRPQLCPRP | 0.444 |
| RRIRPRPPRLPRPRPRPQLMPRP | -0.0192 |
| RRIRPRPPRLPRPRPRPQMAPRP | 0.129 |
| RRIRPRPPRLPRPRPRPQMFPRP | 0.161 |
| RRIRPRPPRLPRPRPRPQNQPRP | -0.407 |
| RRIRPRPPRLPRPRPRPQNYPRP | -0.395 |
| RRIRPRPPRLPRPRPRPQPCPRP | -0.0627 |
| RRIRPRPPRLPRPRPRPQPQPRP | 0.26 |
| RRIRPRPPRLPRPRPRPQRIPRP | 0.0114 |
| RRIRPRPPRLPRPRPRPQSAPRP | 1.69 |

| Sequence | shrunken log2 fold change |
| --- | --- |
| RRIRPRPPRLPRPRPRPQSKPRP | -0.237 |
| RRIRPRPPRLPRPRPRPQTAPRP | 0.111 |
| RRIRPRPPRLPRPRPRPQTFPRP | -0.495 |
| RRIRPRPPRLPRPRPRPQTGPRP | 0.142 |
| RRIRPRPPRLPRPRPRPQTNPRP | -0.0828 |
| RRIRPRPPRLPRPRPRPQVRPRP | -0.13 |
| RRIRPRPPRLPRPRPRPQVVPRP | -0.00675 |
| RRIRPRPPRLPRPRPRPRAMPRP | 0.292 |
| RRIRPRPPRLPRPRPRPRAWPRP | 0.0147 |
| RRIRPRPPRLPRPRPRPRDVPRP | 0.0755 |
| RRIRPRPPRLPRPRPRPRERPRP | 0.121 |
| RRIRPRPPRLPRPRPRPRHYPRP | 0.101 |
| RRIRPRPPRLPRPRPRPRIFPRP | -0.0669 |
| RRIRPRPPRLPRPRPRPRIRPRP | 0.0752 |
| RRIRPRPPRLPRPRPRPRKKPRP | 0.0638 |
| RRIRPRPPRLPRPRPRPRKNPRP | 0.296 |
| RRIRPRPPRLPRPRPRPRKYPRP | -0.352 |
| RRIRPRPPRLPRPRPRPRLAPRP | 0.507 |
| RRIRPRPPRLPRPRPRPRLGPRP | 0.586 |
| RRIRPRPPRLPRPRPRPRMEPRP | 0.197 |
| RRIRPRPPRLPRPRPRPRNPPRP | 0.405 |
| RRIRPRPPRLPRPRPRPRNRPRP | 0.516 |
| RRIRPRPPRLPRPRPRPRPLPRP | 0.627 |
| RRIRPRPPRLPRPRPRPRRYPRP | -0.0175 |
| RRIRPRPPRLPRPRPRPRTEPRP | 0.306 |

| Sequence | shrunken log2 fold change |
| --- | --- |
| RRIRPRPPRLPRPRPRPRTFPRP | 0.23 |
| RRIRPRPPRLPRPRPRPRVQPRP | 0.398 |
| RRIRPRPPRLPRPRPRPSACPRP | 0.0137 |
| RRIRPRPPRLPRPRPRPSASPRP | 2.33 |
| RRIRPRPPRLPRPRPRPSCVPRP | -0.368 |
| RRIRPRPPRLPRPRPRPSCYPRP | -0.332 |
| RRIRPRPPRLPRPRPRPSFHPRP | 0.626 |
| RRIRPRPPRLPRPRPRPSFTPRP | -0.213 |
| RRIRPRPPRLPRPRPRPSGAPRP | 0.345 |
| RRIRPRPPRLPRPRPRPSIAPRP | -0.131 |
| RRIRPRPPRLPRPRPRPSLHPRP | -0.21 |
| RRIRPRPPRLPRPRPRPSLNPRP | -0.539 |
| RRIRPRPPRLPRPRPRPSLVPRP | -0.222 |
| RRIRPRPPRLPRPRPRPSMGPRP | -0.156 |
| RRIRPRPPRLPRPRPRPSMTPRP | 0.496 |
| RRIRPRPPRLPRPRPRPSMVPRP | -0.376 |
| RRIRPRPPRLPRPRPRPSQAPRP | 0.106 |
| RRIRPRPPRLPRPRPRPSQQPRP | 0.0138 |
| RRIRPRPPRLPRPRPRPSQVPRP | -0.645 |
| RRIRPRPPRLPRPRPRPSSMPRP | -0.29 |
| RRIRPRPPRLPRPRPRPSTHPRP | -0.203 |
| RRIRPRPPRLPRPRPRPSTYPRP | -0.415 |
| RRIRPRPPRLPRPRPRPSVAPRP | 0.0839 |
| RRIRPRPPRLPRPRPRPSVVPRP | -0.162 |
| RRIRPRPPRLPRPRPRPSVYPRP | -0.361 |

| Sequence | shrunken log2 fold change |
| --- | --- |
| RRIRPRPPRLPRPRPRPSWGPRP | -0.0123 |
| RRIRPRPPRLPRPRPRPSYIPRP | -0.458 |
| RRIRPRPPRLPRPRPRPSYTPRP | -0.868 |
| RRIRPRPPRLPRPRPRPSYWPRP | -0.277 |
| RRIRPRPPRLPRPRPRPTCDPRP | 0.052 |
| RRIRPRPPRLPRPRPRPTCNPRP | -0.142 |
| RRIRPRPPRLPRPRPRPTDDPRP | -0.392 |
| RRIRPRPPRLPRPRPRPTDMPRP | 0.157 |
| RRIRPRPPRLPRPRPRPTEKPRP | 0.0615 |
| RRIRPRPPRLPRPRPRPTFEPRP | 0.035 |
| RRIRPRPPRLPRPRPRPTFHPRP | 0.0667 |
| RRIRPRPPRLPRPRPRPTGEPRP | 0.396 |
| RRIRPRPPRLPRPRPRPTHMPRP | 0.255 |
| RRIRPRPPRLPRPRPRPTHWPRP | 0.484 |
| RRIRPRPPRLPRPRPRPTILPRP | -0.104 |
| RRIRPRPPRLPRPRPRPTKSPRP | 0.777 |
| RRIRPRPPRLPRPRPRPTMCPRP | -0.0327 |
| RRIRPRPPRLPRPRPRPTNAPRP | 0.167 |
| RRIRPRPPRLPRPRPRPTPEPRP | 0.277 |
| RRIRPRPPRLPRPRPRPTPQPRP | 0.497 |
| RRIRPRPPRLPRPRPRPTPYPRP | -0.0196 |
| RRIRPRPPRLPRPRPRPTQFPRP | 0.274 |
| RRIRPRPPRLPRPRPRPTRMPRP | 0.479 |
| RRIRPRPPRLPRPRPRPTRPPRP | 0.782 |
| RRIRPRPPRLPRPRPRPTSYPRP | -0.0178 |

| Sequence | shrunken log2 fold change |
| --- | --- |
| RRIRPRPPRLPRPRPRPTTRPRP | 1.65 |
| RRIRPRPPRLPRPRPRPTVPPRP | -0.0252 |
| RRIRPRPPRLPRPRPRPTVWPRP | 0.747 |
| RRIRPRPPRLPRPRPRPVFEPRP | 0.222 |
| RRIRPRPPRLPRPRPRPVFPPRP | 0.181 |
| RRIRPRPPRLPRPRPRPVHAPRP | 0.441 |
| RRIRPRPPRLPRPRPRPVHWPRP | 0.00332 |
| RRIRPRPPRLPRPRPRPVISPRP | -0.00579 |
| RRIRPRPPRLPRPRPRPVIYPRP | -0.063 |
| RRIRPRPPRLPRPRPRPVKCPRP | -0.0701 |
| RRIRPRPPRLPRPRPRPVKFPRP | 0.184 |
| RRIRPRPPRLPRPRPRPVKSPRP | -0.0156 |
| RRIRPRPPRLPRPRPRPVNAPRP | 0.138 |
| RRIRPRPPRLPRPRPRPVPYPRP | -0.253 |
| RRIRPRPPRLPRPRPRPVQEPRP | -0.0759 |
| RRIRPRPPRLPRPRPRPVQHPRP | 0.278 |
| RRIRPRPPRLPRPRPRPVRKPRP | 0.73 |
| RRIRPRPPRLPRPRPRPVTLPRP | 0.527 |
| RRIRPRPPRLPRPRPRPVTPPRP | 0.125 |
| RRIRPRPPRLPRPRPRPVTRPRP | -0.0129 |
| RRIRPRPPRLPRPRPRPVVCPRP | 0.53 |
| RRIRPRPPRLPRPRPRPVVQPRP | 0.28 |
| RRIRPRPPRLPRPRPRPVVRPRP | 0.116 |
| RRIRPRPPRLPRPRPRPVWAPRP | 0.278 |
| RRIRPRPPRLPRPRPRPVWCPRP | 0.0172 |
